Measured values: patent publication US20240117018A1

B1: N49P23 (antibody, V domains shown)
VH: QVRLVQSGAGARKTGASMKLSCSTSGYTFTTHHGHFINWVRQARGQGLEWMGWMNPMTGQMNIEGKFQGRVTLTRDIYSDTAYMEMTRLTTGDTGTYYCARGDFGQNYPFHYWGQGSLVIVSS
VL: LSALTQPASVSGSPGQSVTISCSGTNRYLVSWYQQHPDKAPKLIIYDDNKRPSGISDRFSASRPDDTASLTISGLQTGDEATYWCASYERFGGGTRLTVLS
B2: N49P22 (antibody, V domains shown)
V domain 1: HIQLLQSGPQVKKSGDTVRISCETSGYNFVDSRIHWVRQTPEKRLRWMGWINPLQGGVNYAPEFQGRIRMTRDTFIDTVYVDLSGLTPADTAYYYCARGIDGKSYPFHFWGHGTRVTVFS
V domain 2: RFALTQPASVSGSPGQTITITCAGGSVSWFHFPPGKTPRLIIYESSKRPSGVSPRFSGSQSGSTASLIISGLQSDDEGTYFCSILEFFGRGTLVTVLS

Columns and labels:
Experiment in all cases: cell-based or functional assay
[1] = molecular target: 1006_11_C3_1601 Env pseudovirus (HIV-1)
[2] = molecular target: CAP45.2.00.G3 Env pseudovirus (HIV-1)
[3] = molecular target: MuLV envelope (negative control pseudovirus) (MuLV)
[4] = molecular target: ZM233M.PB6 Env pseudovirus (HIV-1)

| Binder | IC50 [1] | IC80 [1] | MPI [1] | IC50 [2] | IC80 [2] | MPI [2] | IC50 [3] | IC80 [3] | MPI [3] | IC50 [4] | IC80 [4] | MPI [4] |
| --- | --- | --- | --- | --- | --- | --- | --- | --- | --- | --- | --- | --- |
| B1 | 0.015 µg/mL | 0.054 µg/mL | 100 | > 50 µg/mL | > 50 µg/mL | 0 | > 50 µg/mL | > 50 µg/mL | 9 | > 50 µg/mL | > 50 µg/mL | 14 |
| B2 | 0.898 µg/mL | 14.7 µg/mL | 83 | > 50 µg/mL | > 50 µg/mL | 0 | > 50 µg/mL | > 50 µg/mL | 8 | > 50 µg/mL | > 50 µg/mL | 2 |
